# From CN114409779A
# B1: NogoAD1-1 (antibody, part only; not given: Light chain variable domain, V domains shown, part only)
# VH: EVLLVESQQTPVKPGGSLKASCAGSQSVFLTAAYSWVRPTPEKLLEWVATISYGSPNTYYPDSVKGRYNEKFKGKATLTVETSSSTAYMQLSSLTSEDTAVYFCARRSYGEDSWFSYWGQGTLVTVSS
# Target: 重组人NogoA蛋白 (recombinant human NogoA protein) (human) (UniProt Q9NQC3)
# Assay: BLI (Gator label-free analyser), antibody captured on Protein A probe, NogoA at 10, 5, 2.5 and 0 ug/mL
# Chain of UniProt Q9NQC3 (Q9NQC3 1055-1120 limits assumed): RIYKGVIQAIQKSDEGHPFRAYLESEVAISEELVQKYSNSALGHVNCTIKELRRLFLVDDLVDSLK
binder,measurement,value
B1,Kd,8.2 pM
